# Experimental data: patent US20100151573A1 (published 2010)
# T1: Recombinant human P-selectin/Fc chimera (rhP/Fc), not conjugated, adsorbed on microtubing (human, UniProt P16109 42-771)
# T1 construct: Microtubing pre-incubated with rhP/Fc at 60 ug/ml in PBS for 2 h, then coated with non-targeting nanoparticles; Fc part of the bought chimera not given
# T1 sequence (looked up): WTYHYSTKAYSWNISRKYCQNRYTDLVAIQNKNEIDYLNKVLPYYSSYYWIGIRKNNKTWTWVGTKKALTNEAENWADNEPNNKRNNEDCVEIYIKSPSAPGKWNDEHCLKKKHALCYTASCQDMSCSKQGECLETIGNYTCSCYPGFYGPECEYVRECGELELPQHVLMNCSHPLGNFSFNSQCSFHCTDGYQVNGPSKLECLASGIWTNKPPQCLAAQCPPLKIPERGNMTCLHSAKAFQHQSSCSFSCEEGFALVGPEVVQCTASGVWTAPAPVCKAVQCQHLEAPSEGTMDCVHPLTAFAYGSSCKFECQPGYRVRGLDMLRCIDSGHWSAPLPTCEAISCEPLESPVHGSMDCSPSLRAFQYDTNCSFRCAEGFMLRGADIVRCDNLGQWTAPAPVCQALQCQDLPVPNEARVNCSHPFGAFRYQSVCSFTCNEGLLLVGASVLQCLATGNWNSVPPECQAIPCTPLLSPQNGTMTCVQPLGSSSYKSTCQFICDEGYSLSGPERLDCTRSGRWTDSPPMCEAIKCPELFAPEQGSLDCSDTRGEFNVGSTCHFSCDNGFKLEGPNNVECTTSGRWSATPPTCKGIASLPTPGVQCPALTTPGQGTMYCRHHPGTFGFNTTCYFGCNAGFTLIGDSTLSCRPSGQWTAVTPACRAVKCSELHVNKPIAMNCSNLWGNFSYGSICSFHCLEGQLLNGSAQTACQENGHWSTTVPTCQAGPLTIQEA
# T2: Recombinant human P-selectin/Fc chimera covalently coupled to DSPE-PEG2000 maleimide and inserted into … (human, UniProt P16109 42-771, sulfhydryl groups introduced at primary amines with Traut's reagent (2-iminothiolane) and linked to the maleimide group of DSPE-PEG2000; positions not stated)
# T2 construct: Bought rhP/Fc (R&D Systems); also called rhP/Fc-DSPE-PEG2000 maleimide; PS-DSPE-PEG NP; Fc part of the bought chimera not given
# T2 sequence (looked up): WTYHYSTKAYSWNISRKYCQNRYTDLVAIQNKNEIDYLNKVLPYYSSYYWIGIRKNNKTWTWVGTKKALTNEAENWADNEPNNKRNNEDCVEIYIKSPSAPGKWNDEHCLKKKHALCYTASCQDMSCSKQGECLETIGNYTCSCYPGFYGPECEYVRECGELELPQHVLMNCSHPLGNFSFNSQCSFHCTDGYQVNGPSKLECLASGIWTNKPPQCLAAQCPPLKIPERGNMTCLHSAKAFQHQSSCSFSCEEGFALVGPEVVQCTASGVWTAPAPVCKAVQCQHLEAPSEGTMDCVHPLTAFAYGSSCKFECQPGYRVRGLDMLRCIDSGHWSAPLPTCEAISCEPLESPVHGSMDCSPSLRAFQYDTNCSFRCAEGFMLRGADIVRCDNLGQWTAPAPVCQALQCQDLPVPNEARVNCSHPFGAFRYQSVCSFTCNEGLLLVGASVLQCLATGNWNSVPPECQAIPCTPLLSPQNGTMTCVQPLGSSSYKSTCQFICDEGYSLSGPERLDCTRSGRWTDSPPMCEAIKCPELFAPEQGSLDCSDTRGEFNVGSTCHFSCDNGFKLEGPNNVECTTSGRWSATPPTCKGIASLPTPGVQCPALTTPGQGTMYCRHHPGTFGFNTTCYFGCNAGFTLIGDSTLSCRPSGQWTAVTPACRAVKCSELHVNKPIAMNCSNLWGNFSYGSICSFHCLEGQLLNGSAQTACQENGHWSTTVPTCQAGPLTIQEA
# Columns and labels:
# [1] = target: T1, Recombinant human P-selectin/Fc chimera …; test: perfusion of HL60 cells through rhP/Fc coated microtube
# [2] = target: T2, Recombinant human P-selectin/Fc chimera …; test: perfusion of HL60 cells through nanoparticle coated microtube, microscopy
# Method: P-selectin nanoparticles were coated onto the surface of microrenathane tubing for 2 h at RT, and then perfusion experiments conducted. (a) and (b) were taken before perfusion, (c) and (d) were taken after perfusion but before the cells were released. (e) and (f) were taken after the adherent cells were released from the microtubing. In (g) and (h), HL60 cells were perfused through the P-selectin coated tube. In (i) and (j), cells were pre-incubated with anti-PSGL-1 for 1 h at RT and then perfused through the P-selectin coated tube. In (k) and (l), the perfused cells were MCF7. In (m) and (n), the P-selectin nanoparticles were incubated with anti-P-selectin for 1 h at RT and then applied to the microtube coating. In (o) and (p), P-selectin was replaced with IgG to construct the coating nanoparticles. The pictures were taken after cellular perfusion but before the cells were released from the surface. [III]. Nanoparticles alone could not (q, r, s) but P-selectin nanoparticles could (t, u, v) deliver Cy3-siRNA into HL60 cells under rolling conditions in the microtubing. q and t were taken in epifluorescence mode, r and u were taken in brightfield mode, and s and v are the merge of q and r, and […]. TRITC represents Tetramethyl Rhodamine Iso-Thiocyanate filter. […]
binder,measurement,setting,value
"P-selectin glycoprotein ligand-1 (PSGL-1) on HL60 cells (receptor, UniProt Q14242 42-412, looked up, whole, on cells; also called P-selectin receptor; PSGL-1 receptors in HL60 cells) QATEYEYLDYDFLPETEPPEMLRNSTDTTPLTGPGTPESTTVEPAARRSTGLDAGGAVTELTTELANMGNLSTDSAAMEIQTTQPAATEAQTTQPVPTEAQTTPLAATEAQTTRLTATEAQTTPLAATEAQTTPPAATEAQTTQPTGLEAQTTAPAAMEAQTTAPAAMEAQTTPPAAMEAQTTQTTAMEAQTTAPEATEAQTTQPTATEAQTTPLAAMEALSTEPSATEALSMEPTTKRGLFIPFSVSSVTHKGIPMAASNLSVNYPVGAPDHISVKQCLLAILILALVATIFFVCTVVLAVRLSRKGHMYPVRNYSPTEMVCISSLLPDGGEGPSATANGGLSKAKSPGLTPEPREDREGDDLTLHSFLP",binding result,[1],binds
same,binding result,[2],binds
